In publication PMC4992171:

Assays:
iRFP713 [1] = assay: AUC; sedimentation velocity, 20 °C, 58,000 r.p.m., PBS, absorbance at 645 nm, protein at A645 ≈0.9; side-by-side comparison of miRFPs with IFP2.0 and iRFP713
iRFP713 [2] = assay: SEC; side-by-side comparison of miRFPs with IFP2.0 and iRFP713 (Supplementary Fig. 3 or 4), HiLoad 16/600 Superdex 200; concentration not given
IFP2.0 [3] = assay: AUC; sedimentation velocity, 20 °C, 58,000 r.p.m., PBS, absorbance at 645 nm, protein at A645 ≈0.9; side-by-side comparison of miRFPs with IFP2.0 and iRFP713
IFP2.0 [4] = assay: SEC; side-by-side comparison of miRFPs with IFP2.0 and iRFP713 (Supplementary Fig. 3 or 4), HiLoad 16/600 Superdex 200; concentration not given

stoichiometry N (iRFP713 [1]) | stoichiometry N (iRFP713 [2]) | stoichiometry N (IFP2.0 [3]) | stoichiometry N (IFP2.0 [4]) | Substance
2 | 2 |  |  | iRFP713
 |  | 2 | 2 | IFP2.0
